This is an account of results in patent US20190169286A1 (Chugai, published 2019).

As a reminder, the koff is the rate constant with which the complex falls apart. Usually kon stands for the rate constant with which the complex forms. What is called Kd is the constant that tells how readily two partners part at equilibrium.

Residue numbers refer to the chain shown, from its start. Names may count otherwise.

The target in test [1] is T1, soluble human FcγRIa (His-tagged) (human, UniProt P12314 16-292, limits assumed).
T1 construct: also called hFcγRIa; not shown: His tag
T1 sequence (P12314 16-292 limits assumed): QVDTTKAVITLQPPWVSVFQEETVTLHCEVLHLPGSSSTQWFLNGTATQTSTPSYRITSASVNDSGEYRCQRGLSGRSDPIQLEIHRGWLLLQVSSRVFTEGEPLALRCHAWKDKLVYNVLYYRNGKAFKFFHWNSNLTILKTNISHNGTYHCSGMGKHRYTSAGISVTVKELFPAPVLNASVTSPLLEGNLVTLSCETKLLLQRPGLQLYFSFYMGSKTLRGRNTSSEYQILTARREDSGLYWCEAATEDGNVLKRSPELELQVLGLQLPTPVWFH
In words: SPR (Biacore T200), antibody captured on rProtein L on a CM4 chip, soluble His-tagged FcγR injected, HBS-EP+, 20 °C. The method, then:
(§1) Soluble FcγRIa and FcγRIIIa in both human and cynomolgus monkey were produced in the form of His-tagged molecules by methods known to those of ordinary skill in the art. […] Next, soluble FcγRIa or FcγRIIIa was injected with a running buffer (used as a reference solution), and was made to interact with the antibodies captured onto the sensor chip. HBS-EP+(GE Healthcare) was used as the running buffer, and HBS-EP+ was also used to dilute the soluble FcγRIa or FcγRIIIa. […] All measurements were carried out at 20° C.
Background: SPR reads the build-up and loss of mass on a sensor chip optically.

Test [2] has as its target T2, soluble human FcγRIIIa (His-tagged) (human, UniProt P08637 17-208).
T2 construct: also called hFcγRIIIa; not shown: His tag
Described as above. The method, then: as §1

Test [3] has as its target T3, soluble cynomolgus monkey FcγRIIIa (His-tagged) (cynomolgus monkey, UniProt Q8SPW2 17-208).
T3 construct: also called cynoFcγRIIIa; not shown: His tag
The test is described as above. How it is done:
as §1

In test [4] the target is T4, human IL-8 (human, UniProt P10145 23-99, limits assumed).
T4 construct: also called hIL-8; hIL8
T4 sequence (P10145 23-99 limits assumed): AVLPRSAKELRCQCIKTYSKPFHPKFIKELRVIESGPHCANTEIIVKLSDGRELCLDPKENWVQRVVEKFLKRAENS
The test is described as follows: SPR Biacore T200, Protein A/G capture, IL-8 analyte, pH 5.8, 37C.
Experimental: (§2) An appropriate amount of Protein A/G (PIERCE) was immobilized onto Sensor chip CM4 (GE Healthcare) by the amine coupling method and the antibodies of interest was captured. […] To regenerate the sensor chip, 10 mM glycine-HCl at pH 1.5 was used. All measurements were carried out at 37° C. […] The BIACORE T200 Evaluation Software (GE Healthcare) was used to calculate each parameter.

Test [5] deals with T4, human IL-8. The test is described as follows: SPR Biacore T200, Protein A/G capture, IL-8 analyte, pH 7.4, 37C.
Experimental: as §2
Test [6] concerns the target T4, human IL-8. The test is described as follows: SPR Biacore T200, Protein A/G capture, IL-8 analyte, pH 5.8, 37C. This is another data set of the same source.
Experimental: as §2
Test [7] has as its target T4, human IL-8. The test is described as follows: SPR Biacore T200, Protein A/G capture, pH 5.8, 37C.
Experimental: (§3) An appropriate amount of Protein A/G (PIERCE) was immobilized onto the Sensor chip CM4 (GE Healthcare) by the amine coupling method and the antibodies of interest were captured. […] To regenerate the sensor chip, 25 mM NaOH and 10 mM glycine-HCl (pH 1.5) were used. […] The BIACORE T200 Evaluation Software (GE Healthcare) was used to calculate each parameter.
Test [8] addresses T4, human IL-8. In words: SPR Biacore T200, Protein A/G capture, IL-8 analyte, pH 7.4, 37C. This is another data set of the same source.
Experimental: as §2
For test [9], the target named is T4, human IL-8. The test is described as follows: SPR Biacore T200, Protein A/G capture, pH 7.4, 40C.
Experimental: as §3
In test [10] the target is T4, human IL-8. The test is described as follows: SPR Biacore T200, Protein A/G capture, pH 5.8, 37C. The source holds these as a separate data set.
Experimental: as §3
In test [11] the target is T4, human IL-8. The test is described as follows: SPR IL-8 binding level per 1000 RU captured Ab, pH 7.4, 40C; 1 week 50C in PBS vs initial.
Test [12] has as its target T4, human IL-8. The test is described as follows: SPR Biacore T200, Protein A/G capture, pH 7.4, 40C. The source holds these as a separate data set.
Experimental: as §3

T2 sequence (P08637 17-208 limits assumed): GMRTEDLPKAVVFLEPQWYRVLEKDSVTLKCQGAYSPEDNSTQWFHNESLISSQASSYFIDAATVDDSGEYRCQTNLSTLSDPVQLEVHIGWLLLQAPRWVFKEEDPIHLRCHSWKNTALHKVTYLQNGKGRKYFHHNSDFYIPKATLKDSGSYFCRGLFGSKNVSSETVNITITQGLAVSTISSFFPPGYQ
T3 sequence (Q8SPW2 17-208 limits assumed): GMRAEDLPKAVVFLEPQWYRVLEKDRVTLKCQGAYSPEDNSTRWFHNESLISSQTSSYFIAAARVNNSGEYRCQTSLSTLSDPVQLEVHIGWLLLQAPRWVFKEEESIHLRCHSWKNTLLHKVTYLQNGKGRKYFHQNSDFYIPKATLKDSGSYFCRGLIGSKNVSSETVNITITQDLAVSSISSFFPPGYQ

B1: H1009/L395-F1886s (H1009-F1886s / L395-k0MT) (antibody)
heavy: QVQLVESGGGLVQPGGSLRLSCAASGFTFSDYYLSWVRQAPGKGLEWVGLIRNKDNYHTPEYSASVKGRFTISRDDSKNSLYLTMSDLKTEDTAVYYCARENHRYDVELAYWGQGTLVTVSSASTKGPSVFPLAPSSKSTSGGTAALGCLVKDYFPEPVTVSWNSGALTSGVHTFPAVLQSSGLYSLSSVVTVPSSSLGTQTYICNVNHKPSNTKVDKKVEPKSCDKTHTCPPCPAPELRRGPKVFLFPPKPKDTLMISRTPEVTCVVVDVSHEDPEVKFNWYVDGVEVHNAKTKPREEQYNSTYRVVSVLTVLHQDWLNGKEYKCKVSNKALPAPIEKTISKAKGQPREPQVYTLPPSREEMTKNQVSLTCLVKGFYPSDIAVEWESNGQPENNYKTTPPVLDSDGSFFLYSKLTVDKSRWQQGNVFSCSVLHEALHAHTTRKELSLSP
light: DIQMTQSPSSLSASVGDRVTITCRASEIIYSYLAWYQQKPGKAPKLLIYKAKTHADGVPSRFSGSGSGTDFTFTISSLQPEDIATYYCKHHFGFPRTFGQGTKVEIKRTVAAPSVFIFPPSDEQLKSGTASVVCLLNNFYPREAKVQWKVDNALQSGNSQESVTEQDSKDSTYSLSSTLTLSKADYEKHKVYACEVTHQGLSSPVTKSFNRGEC
As to B1, the binding result in test [1], in [2] and in test [3] was “no binding (tested: not given)” throughout.

B2: H1009/L395-F1974m (H1009-F1974m / L395-k0MT) (antibody)
heavy: B1 heavy with K244S, A332G, A335S, P336S
light: B1 light
notes: also called antibody H1009/L395-F1974m
On to B2, for which the binding result in test [1], in test [2] and in [3] was “no binding (tested: not given)” each time.

B3: H89/L118 (H89-IgG1 / L118-k0MT) (antibody, V domains shown)
VH: QVQLVESGGGLVQPGGSLRLSCAASGFTFSDYYLSWVRQAPGKGLEWVGLIRNKANGYTREYSASVKGRFTISRDDSKNSLYLQMSSLKTEDTAVYYCARENHRYDVELAYWGQGTLVTVSS
VL: DIQMTQSPSSLSASVGDRVTITCRASEIIYSYLAWYQQKPGKAPKLLIYHAKTHADGVPSRFSGSGSGTDFTFTISSLQPEDIATYYCKHHFGFPRTFGQGTKVEIKR
notes: also called H0089/L0118
With B3, the koff with human IL-8 [4] came out at 0.00384 s⁻¹; with human IL-8 [5], 0.000114 s⁻¹; with human IL-8 [6], 0.0039 s⁻¹; with human IL-8 [7] it was 0.00628 s⁻¹; with human IL-8 [8], 2.13e-05 s⁻¹; with human IL-8 [9] it was 0.000129 s⁻¹. The same molecule returned a koff in the test with human IL-8 [10] of 0.0063 s⁻¹. In addition, the kon with human IL-8 [4] came to 179000 M⁻¹ s⁻¹; with human IL-8 [5], 945000 M⁻¹ s⁻¹; with human IL-8 [6] it was 123000 M⁻¹ s⁻¹; in the test with human IL-8 [7], 129000 M⁻¹ s⁻¹; in the test with human IL-8 [8], 580000 M⁻¹ s⁻¹; in the test with human IL-8 [9], 751000 M⁻¹ s⁻¹.

B4: H1040/L0442 (antibody, human IgG1, kappa, name in Kabat numbering, V domains shown)
VH: B3 VH with D31E, A55D, G57H, Y58H, T59H, R60P, Q84T, S87D
VL: B3 VL with S31E, H50K
notes: L442 = L395 + S31E
In the case of B4, the “Ratio of IL-8 Binding Amount (Thermal Acceleration/Initial)” value in the test with human IL-8 [11] was 0.49. The same molecule had a Kd with human IL-8 [12] of 0.34 nM. Moreover, in the test with human IL-8 [10], the Kd came to 140 nM and the koff was found to be 0.21 s⁻¹.

B5: H1009/L395 (H1009-IgG1m / L395-k0MT) (antibody)
heavy: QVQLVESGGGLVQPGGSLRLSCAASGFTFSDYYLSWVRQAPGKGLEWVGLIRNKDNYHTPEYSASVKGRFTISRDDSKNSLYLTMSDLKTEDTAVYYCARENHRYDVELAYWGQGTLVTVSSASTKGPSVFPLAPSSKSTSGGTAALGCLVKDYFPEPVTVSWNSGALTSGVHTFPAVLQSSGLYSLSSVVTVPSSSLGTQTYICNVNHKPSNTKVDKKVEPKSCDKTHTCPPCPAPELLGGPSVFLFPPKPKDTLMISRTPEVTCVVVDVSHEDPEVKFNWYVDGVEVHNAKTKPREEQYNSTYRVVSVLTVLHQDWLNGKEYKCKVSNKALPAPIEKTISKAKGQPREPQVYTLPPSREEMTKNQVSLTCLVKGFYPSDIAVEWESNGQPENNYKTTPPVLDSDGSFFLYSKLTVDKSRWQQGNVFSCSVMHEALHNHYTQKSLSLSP
light: B1 light
notes: also called H1009/L0395
Regarding B5, in the test with human IL-8 [11], the “Ratio of IL-8 Binding Amount (Thermal Acceleration/Initial)” value was determined as 0.64. Also, in the test with human IL-8 [10], the koff amounted to 0.01 s⁻¹.
